Tests used:
ATP1A1 (human) = ATP1A1 (human) (UniProt P05023); assay: co-IP/MS, anti-FLAG IP of C-FLAG B3GNT2 cell lysate
CASP14 (human) = CASP14 (human) (UniProt P31944); assay: as above
CKAP4 (human) = CKAP4 (human) (UniProt Q07065); assay: as above
DNAJA1 (human) = DNAJA1 (human) (UniProt P31689); assay: as above
ERLIN1 (human) = ERLIN1 (human) (UniProt O75477); assay: as above
FKBP10 (human) = FKBP10 (human) (UniProt Q96AY3); assay: as above
GCN1 (human) = GCN1 (human) (UniProt Q92616); assay: as above
PRDX1 (human) = PRDX1 (human) (UniProt Q06830); assay: as above
PRDX2 (human) = PRDX2 (human) (UniProt P32119); assay: as above
RPL12 (human) = RPL12 (human) (UniProt P30050); assay: as above
RPL14 (human) = RPL14 (human) (UniProt P50914); assay: as above
RPL23A (human) = RPL23A (human) (UniProt P62750); assay: as above
RPL24 (human) = RPL24 (human) (UniProt P83731); assay: as above
RPLPO (human) = RPLPO (human) (UniProt P05388); assay: as above
RPS3A (human) = RPS3A (human) (UniProt P61247); assay: as above
RPS9 (human) = RPS9 (human) (UniProt P46781); assay: as above
UQCRC2 (human) = UQCRC2 (human) (UniProt P22695); assay: as above
DDX20 = DDX20 (UniProt Q9UHI6); assay: co-IP, anti-FLAG, C-FLAG B3GNT2 cell lysate, mass spectrometry
DNAJA2 = DNAJA2 (UniProt O60884); assay: as above
EIF4G1 = EIF4G1 (UniProt Q04637); assay: as above
HIST1H1E = HIST1H1E (UniProt P10412); assay: as above
LIMA1 = LIMA1 (UniProt Q9UHB6); assay: as above
MTDH = MTDH (UniProt Q86UE4); assay: as above
PBXIP1 = PBXIP1 (UniProt Q96AQ6); assay: as above
RPL19 = RPL19 (UniProt P84098); assay: as above
RPL22 = RPL22 (UniProt P35268); assay: as above
RPL27A = RPL27A (UniProt P46776); assay: as above
RPL3 = RPL3 (UniProt P39023); assay: as above
RPL35 = RPL35 (UniProt P42766); assay: as above
RPL37A = RPL37A (UniProt P61513); assay: as above
RPL5 = RPL5 (UniProt P46777); assay: as above
RPS16 = RPS16 (UniProt P62249); assay: as above
RPS8 = RPS8 (UniProt P62241); assay: as above
SRSF1 = SRSF1 (UniProt Q07955); assay: as above
SRSF3 = SRSF3 (UniProt P84103); assay: as above
SSRP1 = SSRP1 (UniProt Q08945); assay: as above
TAGLN = TAGLN (UniProt Q01995); assay: as above
TNKS1BP1 = TNKS1BP1 (UniProt Q9C0C2); assay: as above
TXN = TXN (UniProt P10599); assay: as above

GCN1 (human), sequence (Q92616 2-2671 limits assumed): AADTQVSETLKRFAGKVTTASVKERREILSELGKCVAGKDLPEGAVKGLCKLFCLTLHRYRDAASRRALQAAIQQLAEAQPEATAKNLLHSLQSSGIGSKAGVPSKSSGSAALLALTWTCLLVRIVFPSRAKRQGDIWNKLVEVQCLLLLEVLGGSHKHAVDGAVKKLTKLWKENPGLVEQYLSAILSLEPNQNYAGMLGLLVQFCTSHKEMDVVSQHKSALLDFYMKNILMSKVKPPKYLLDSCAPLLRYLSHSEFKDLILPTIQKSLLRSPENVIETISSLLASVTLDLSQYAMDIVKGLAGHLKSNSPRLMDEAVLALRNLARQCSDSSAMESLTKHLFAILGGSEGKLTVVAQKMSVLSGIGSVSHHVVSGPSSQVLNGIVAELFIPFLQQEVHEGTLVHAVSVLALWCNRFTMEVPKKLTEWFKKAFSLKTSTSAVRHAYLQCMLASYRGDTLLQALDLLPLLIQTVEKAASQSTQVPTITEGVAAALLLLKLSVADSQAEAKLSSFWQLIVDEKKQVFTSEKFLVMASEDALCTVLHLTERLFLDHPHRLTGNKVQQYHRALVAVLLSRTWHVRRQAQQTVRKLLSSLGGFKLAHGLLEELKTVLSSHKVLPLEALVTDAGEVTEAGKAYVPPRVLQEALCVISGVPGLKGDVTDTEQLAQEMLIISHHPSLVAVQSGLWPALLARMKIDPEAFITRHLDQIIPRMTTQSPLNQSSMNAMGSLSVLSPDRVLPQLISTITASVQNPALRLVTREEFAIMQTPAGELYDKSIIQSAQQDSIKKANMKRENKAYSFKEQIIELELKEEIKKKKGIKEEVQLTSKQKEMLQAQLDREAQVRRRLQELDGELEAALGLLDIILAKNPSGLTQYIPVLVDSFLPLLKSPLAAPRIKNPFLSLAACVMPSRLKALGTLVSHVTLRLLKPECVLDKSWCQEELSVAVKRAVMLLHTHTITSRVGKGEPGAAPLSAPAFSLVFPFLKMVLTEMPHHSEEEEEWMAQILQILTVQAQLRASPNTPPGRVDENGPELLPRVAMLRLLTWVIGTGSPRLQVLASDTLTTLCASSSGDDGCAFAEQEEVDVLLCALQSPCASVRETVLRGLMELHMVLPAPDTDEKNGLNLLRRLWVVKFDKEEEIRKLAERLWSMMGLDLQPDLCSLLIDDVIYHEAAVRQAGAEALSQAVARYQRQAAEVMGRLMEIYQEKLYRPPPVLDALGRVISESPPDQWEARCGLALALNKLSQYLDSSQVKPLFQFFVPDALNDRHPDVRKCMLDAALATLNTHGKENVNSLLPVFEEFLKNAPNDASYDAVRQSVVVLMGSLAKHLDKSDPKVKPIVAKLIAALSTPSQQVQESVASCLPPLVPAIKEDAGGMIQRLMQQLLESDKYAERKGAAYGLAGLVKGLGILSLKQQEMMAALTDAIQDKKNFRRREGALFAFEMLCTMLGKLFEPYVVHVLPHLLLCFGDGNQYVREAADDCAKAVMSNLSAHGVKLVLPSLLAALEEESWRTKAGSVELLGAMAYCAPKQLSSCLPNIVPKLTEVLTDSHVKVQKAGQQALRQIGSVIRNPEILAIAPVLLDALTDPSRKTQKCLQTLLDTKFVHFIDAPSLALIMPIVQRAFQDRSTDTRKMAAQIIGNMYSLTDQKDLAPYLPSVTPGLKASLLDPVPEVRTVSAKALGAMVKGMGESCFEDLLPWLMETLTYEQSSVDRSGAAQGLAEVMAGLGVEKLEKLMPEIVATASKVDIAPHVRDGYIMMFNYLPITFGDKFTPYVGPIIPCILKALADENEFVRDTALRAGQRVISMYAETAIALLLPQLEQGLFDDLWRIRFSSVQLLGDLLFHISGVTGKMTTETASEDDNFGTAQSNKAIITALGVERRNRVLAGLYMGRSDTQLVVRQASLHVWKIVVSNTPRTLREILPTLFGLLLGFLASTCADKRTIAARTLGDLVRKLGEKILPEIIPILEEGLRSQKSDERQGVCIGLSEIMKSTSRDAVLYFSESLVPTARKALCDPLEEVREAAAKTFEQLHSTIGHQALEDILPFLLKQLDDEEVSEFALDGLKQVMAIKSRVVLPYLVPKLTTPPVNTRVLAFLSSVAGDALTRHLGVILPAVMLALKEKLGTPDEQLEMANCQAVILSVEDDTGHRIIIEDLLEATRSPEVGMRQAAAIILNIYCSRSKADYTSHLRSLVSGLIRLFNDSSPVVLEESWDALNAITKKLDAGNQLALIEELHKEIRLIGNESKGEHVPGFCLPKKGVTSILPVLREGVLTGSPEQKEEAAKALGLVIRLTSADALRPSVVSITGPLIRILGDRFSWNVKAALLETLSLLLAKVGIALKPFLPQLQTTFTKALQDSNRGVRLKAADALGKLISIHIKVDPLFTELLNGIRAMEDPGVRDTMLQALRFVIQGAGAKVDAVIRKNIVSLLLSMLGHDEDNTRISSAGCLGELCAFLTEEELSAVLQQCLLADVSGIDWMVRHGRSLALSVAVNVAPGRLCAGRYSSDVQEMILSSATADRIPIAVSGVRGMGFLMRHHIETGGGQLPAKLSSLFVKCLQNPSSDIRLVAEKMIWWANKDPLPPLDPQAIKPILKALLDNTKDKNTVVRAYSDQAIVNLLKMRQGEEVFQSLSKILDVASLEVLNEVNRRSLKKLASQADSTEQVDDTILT
CASP14 (human), sequence (P31944 whole entry): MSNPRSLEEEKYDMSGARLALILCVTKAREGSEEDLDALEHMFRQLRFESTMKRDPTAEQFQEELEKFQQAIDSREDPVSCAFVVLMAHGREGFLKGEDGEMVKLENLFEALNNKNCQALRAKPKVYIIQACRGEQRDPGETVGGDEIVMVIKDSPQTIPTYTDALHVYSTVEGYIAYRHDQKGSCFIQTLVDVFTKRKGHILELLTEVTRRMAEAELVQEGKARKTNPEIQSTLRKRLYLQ
EIF4G1, sequence (Q04637 41-1599 limits assumed): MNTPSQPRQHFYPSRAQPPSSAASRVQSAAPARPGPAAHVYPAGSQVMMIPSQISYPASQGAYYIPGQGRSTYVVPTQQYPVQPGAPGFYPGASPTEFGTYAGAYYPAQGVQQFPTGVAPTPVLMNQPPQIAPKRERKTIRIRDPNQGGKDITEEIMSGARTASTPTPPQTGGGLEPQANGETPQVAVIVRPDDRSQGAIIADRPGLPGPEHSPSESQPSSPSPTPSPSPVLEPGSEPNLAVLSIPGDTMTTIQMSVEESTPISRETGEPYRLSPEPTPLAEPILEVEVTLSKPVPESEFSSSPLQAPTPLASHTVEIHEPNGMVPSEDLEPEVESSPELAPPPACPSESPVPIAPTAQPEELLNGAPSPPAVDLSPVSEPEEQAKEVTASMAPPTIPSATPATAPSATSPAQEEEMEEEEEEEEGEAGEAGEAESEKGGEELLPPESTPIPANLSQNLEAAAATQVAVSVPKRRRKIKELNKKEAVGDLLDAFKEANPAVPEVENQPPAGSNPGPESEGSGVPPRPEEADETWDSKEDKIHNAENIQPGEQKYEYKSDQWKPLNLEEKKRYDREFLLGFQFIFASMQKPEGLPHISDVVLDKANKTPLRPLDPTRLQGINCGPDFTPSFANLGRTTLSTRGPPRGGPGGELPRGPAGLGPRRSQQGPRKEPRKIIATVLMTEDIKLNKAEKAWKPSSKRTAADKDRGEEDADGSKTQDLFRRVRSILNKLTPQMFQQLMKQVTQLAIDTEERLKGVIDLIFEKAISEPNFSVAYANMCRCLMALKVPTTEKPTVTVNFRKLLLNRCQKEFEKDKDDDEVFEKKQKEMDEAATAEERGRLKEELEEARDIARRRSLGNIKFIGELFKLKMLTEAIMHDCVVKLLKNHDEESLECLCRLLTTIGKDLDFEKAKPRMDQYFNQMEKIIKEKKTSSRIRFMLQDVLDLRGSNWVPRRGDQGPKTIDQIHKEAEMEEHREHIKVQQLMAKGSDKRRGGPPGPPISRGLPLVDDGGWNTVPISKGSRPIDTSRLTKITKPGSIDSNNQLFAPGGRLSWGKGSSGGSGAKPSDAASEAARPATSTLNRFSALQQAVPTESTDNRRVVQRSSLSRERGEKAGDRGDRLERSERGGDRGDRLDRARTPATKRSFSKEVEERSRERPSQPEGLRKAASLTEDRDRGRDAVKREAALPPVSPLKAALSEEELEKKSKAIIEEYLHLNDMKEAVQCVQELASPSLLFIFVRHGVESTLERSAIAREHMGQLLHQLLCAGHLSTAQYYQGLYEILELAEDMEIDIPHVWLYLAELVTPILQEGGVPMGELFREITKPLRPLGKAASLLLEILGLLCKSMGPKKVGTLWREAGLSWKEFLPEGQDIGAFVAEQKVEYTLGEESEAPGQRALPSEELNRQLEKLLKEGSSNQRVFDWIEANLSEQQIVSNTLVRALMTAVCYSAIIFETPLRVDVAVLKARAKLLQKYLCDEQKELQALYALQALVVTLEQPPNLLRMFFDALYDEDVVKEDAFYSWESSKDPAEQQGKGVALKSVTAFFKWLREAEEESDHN
SRSF1, sequence (Q07955 2-248 limits assumed): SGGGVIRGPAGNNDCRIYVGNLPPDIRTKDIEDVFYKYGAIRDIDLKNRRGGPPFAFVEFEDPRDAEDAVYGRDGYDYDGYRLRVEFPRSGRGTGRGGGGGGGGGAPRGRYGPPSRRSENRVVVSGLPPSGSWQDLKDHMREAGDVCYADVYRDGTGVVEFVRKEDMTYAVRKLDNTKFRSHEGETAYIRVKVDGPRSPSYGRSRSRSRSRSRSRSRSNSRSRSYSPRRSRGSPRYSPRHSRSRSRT
HIST1H1E, sequence (P10412 2-219 limits assumed): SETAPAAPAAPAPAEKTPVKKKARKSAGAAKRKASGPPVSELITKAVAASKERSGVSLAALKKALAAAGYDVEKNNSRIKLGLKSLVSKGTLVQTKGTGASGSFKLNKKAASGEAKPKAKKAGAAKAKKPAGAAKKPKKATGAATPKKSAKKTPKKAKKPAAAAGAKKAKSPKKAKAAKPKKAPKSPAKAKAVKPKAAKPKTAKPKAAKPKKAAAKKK
SRSF3, sequence (P84103 whole entry): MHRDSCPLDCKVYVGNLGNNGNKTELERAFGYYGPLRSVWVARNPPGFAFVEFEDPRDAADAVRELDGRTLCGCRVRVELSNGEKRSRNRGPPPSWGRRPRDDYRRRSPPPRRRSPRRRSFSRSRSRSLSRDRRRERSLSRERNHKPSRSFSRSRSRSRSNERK

For “C-terminal FLAG tagged B3GNT2 (from UniProt Q9NY97 1-397) (enzyme)”, the co-IP mass spectrometry count (ATP1A1 (human)) was 12, the co-IP mass spectrometry count (CASP14 (human)) was 9 and the co-IP mass spectrometry count (CKAP4 (human)) was 14. It also gave a co-IP mass spectrometry count (DNAJA1 (human)) of 10, a co-IP mass spectrometry count (ERLIN1 (human)) of 9 and a co-IP mass spectrometry count (FKBP10 (human)) of 16. It also gave a co-IP mass spectrometry count (GCN1 (human)) of 4, a co-IP mass spectrometry count (PRDX1 (human)) of 6 and a co-IP mass spectrometry count (PRDX2 (human)) of 5. For the same substance, the co-IP mass spectrometry count (RPL12 (human)) was 11, the co-IP mass spectrometry count (RPL14 (human)) was 21 and the co-IP mass spectrometry count (RPL23A (human)) was 10. The co-IP mass spectrometry count (RPL24 (human)) was 14, the co-IP mass spectrometry count (RPLPO (human)) was 10 and the co-IP mass spectrometry count (RPS3A (human)) was 29. The co-IP mass spectrometry count (RPS9 (human)) was 6, the co-IP mass spectrometry count (UQCRC2 (human)) was 4 and the co-IP mass spectrometry count (DDX20) was 6. For the same substance, the co-IP mass spectrometry count (DNAJA2) was 3, the co-IP mass spectrometry count (EIF4G1) was 6 and the co-IP mass spectrometry count (HIST1H1E) was 6. It also gave a co-IP mass spectrometry count (LIMA1) of 2, a co-IP mass spectrometry count (MTDH) of 6 and a co-IP mass spectrometry count (PBXIP1) of 4. It also gave a co-IP mass spectrometry count (RPL19) of 11, a co-IP mass spectrometry count (RPL22) of 5 and a co-IP mass spectrometry count (RPL27A) of 10. The co-IP mass spectrometry count (RPL3) was 25, the co-IP mass spectrometry count (RPL35) was 5 and the co-IP mass spectrometry count (RPL37A) was 7. The co-IP mass spectrometry count (RPL5) was 6, the co-IP mass spectrometry count (RPS16) was 20 and the co-IP mass spectrometry count (RPS8) was 17. The co-IP mass spectrometry count (SRSF1) was 9, the co-IP mass spectrometry count (SRSF3) was 7 and the co-IP mass spectrometry count (SSRP1) was 6. The co-IP mass spectrometry count (TAGLN) was 3, the co-IP mass spectrometry count (TNKS1BP1) was 8 and the co-IP mass spectrometry count (TXN) was 3.

Reference: US20240261333A1, “NOVEL TARGETS FOR ENHANCING ANTI-TUMOR IMMUNITY” (THE BROAD INSTITUTE, INC., priority 2021, published 2024)
